Measurements published in paper PMC4372114.
Values joined by “and” are separate entries in the source; they are usually repeats but may differ in a detail not shown here. Equal entries are not always repeated.

Target: Recombinant human vascular endothelial growth factor receptor (VEGFR) (human) (UniProt P35968)
Assay: SPR

Chain of UniProt P35968 (P35968 20-764): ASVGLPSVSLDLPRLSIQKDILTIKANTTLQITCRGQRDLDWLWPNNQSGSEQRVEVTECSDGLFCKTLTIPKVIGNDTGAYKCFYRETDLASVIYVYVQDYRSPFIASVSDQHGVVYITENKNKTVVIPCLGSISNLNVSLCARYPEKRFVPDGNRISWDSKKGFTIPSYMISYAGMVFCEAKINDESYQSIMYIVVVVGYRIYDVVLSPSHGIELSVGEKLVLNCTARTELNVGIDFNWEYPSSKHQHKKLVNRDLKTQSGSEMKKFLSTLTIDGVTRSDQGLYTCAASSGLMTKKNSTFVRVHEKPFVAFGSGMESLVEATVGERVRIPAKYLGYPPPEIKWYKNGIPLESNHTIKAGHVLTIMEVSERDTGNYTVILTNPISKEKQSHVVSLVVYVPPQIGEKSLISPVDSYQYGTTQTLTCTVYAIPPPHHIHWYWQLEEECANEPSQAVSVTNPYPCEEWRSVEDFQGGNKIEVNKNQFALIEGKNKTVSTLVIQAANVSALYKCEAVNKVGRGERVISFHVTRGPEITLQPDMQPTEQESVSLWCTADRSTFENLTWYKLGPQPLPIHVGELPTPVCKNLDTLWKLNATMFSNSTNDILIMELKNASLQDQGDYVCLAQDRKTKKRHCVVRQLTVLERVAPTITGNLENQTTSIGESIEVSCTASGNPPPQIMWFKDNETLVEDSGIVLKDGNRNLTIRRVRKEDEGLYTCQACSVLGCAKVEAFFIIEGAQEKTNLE

| SPR baseline shift | kon | Substance |
| --- | --- | --- |
| 60.2 mDeg and 69.3 mDeg and 57.4 mDeg | 83000 M⁻¹ s⁻¹ and 91000 M⁻¹ s⁻¹ and 82000 M⁻¹ s⁻¹ | Recombinant human vascular endothelial growth factor (VEGF) (from UniProt P15692 1-395) (ligand) |
| 104 mDeg and 106 mDeg and 113 mDeg |  | VEGF released from living SKOV-3 cells (from UniProt P15692 1-395) (ligand) |
